The target of one data set is T1, Abz-VDVADHA-Dap (Dnp).
T1 chain: VDVADHA

The next data set concerns the target T2, Abz-VDVADTA-Dap (Dnp).
T2 chain: VDVADTA

A further data set concerns the target T3, Abz-VDVADRA-Dap (Dnp).
T3 chain: VDVADRA

The target of a further data set is T4, Abz-VDVADLA-Dap (Dnp).
T4 chain: VDVADLA

A further data set addresses T5, Abz-VDVADYA-Dap (Dnp).
T5 chain: VDVADYA

The target of the next data set is T6, Abz-VDVADDA-Dap (Dnp).
T6 chain: VDVADDA

The next data set deals with T7, Abz-VDVADIA-Dap (Dnp).
T7 chain: VDVADIA

A further data set has as its target T8, Abz-VDVADNA-Dap (Dnp).
T8 chain: VDVADNA

For another data set, the target named is T9, Abz-VDVADFA-Dap (Dnp).
T9 chain: VDVADFA

For a further data set, the target named is T10, Abz-VDVADPA-Dap (Dnp).
T10 chain: VDVADPA

A further data set addresses T11, Abz-VDVADMA-Dap (Dnp).
T11 chain: VDVADMA

A further data set concerns the target T12, Abz-VDVADKA-Dap (Dnp).
T12 chain: VDVADKA

For another data set, the target named is T13, Abz-VDVADVA-Dap (Dnp).
T13 chain: VDVADVA

For a further data set, the target named is T14, Abz-VDVADEA-Dap (Dnp).
T14 chain: VDVADEA

Another data set addresses T15, Abz-VDVADQA-Dap (Dnp).
T15 chain: VDVADQA

In the next data set the target is T16, Abz-VDVADGA-Dap (Dnp).
T16 chain: VDVADGA

The next data set deals with T17, Abz-VDVADAA-Dap (Dnp).
T17 chain: VDVADAA

Another data set has as its target T18, Abz-VDVADSA-Dap (Dnp).
T18 chain: VDVADSA

In a further data set the target is T19, Abz-VDVADWA-Dap (Dnp).
T19 chain: VDVADWA

Data set [1] has as its target T7AC_6H_GSGSGSG_VDVAD-hFGF2.
For another data set, the target named is T20, Abz-VDVADCA-Dap (Dnp).
T20 chain: VDVADCA

The record followed here is patent US20220380739.

Numbering of substitutions follows the chain as printed.

Sequence of 6H-GSG-VDVAD-TNFalpha (chain, as listed by the source): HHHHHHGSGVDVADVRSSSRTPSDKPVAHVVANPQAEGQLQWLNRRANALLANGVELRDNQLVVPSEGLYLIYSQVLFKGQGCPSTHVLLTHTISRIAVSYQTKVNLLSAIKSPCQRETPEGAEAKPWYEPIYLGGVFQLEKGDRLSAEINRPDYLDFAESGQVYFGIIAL

B1: Caspase-2 (human), recombinant, active, Enzo Life Sciences (protein)
chain: GPVCLQVKPCTPEFYQTHFQLAYRLQSRPRGLALVLSNVHFTGEKELEFRSGGDVDHSTLVTLFKLLGYDVHVLCDQTAQEMQEKLQNFAQLPAHRVTDSCIVALLSHGVEGAIYGVDGKLLQLQEVFQLFDNANCPSLQNKPKMFFIQACRGDETDRGVDQQDGKNHAGSPGCEESDAGKEKLPKMRLPTRSDMICGYACLKGTAAMRNTKRGSWYIEALAQVFSERACDMHVADMLVKVNALIKDREGYAPGTEFHRCKEMSEYCSTLCRHLYLFPGHPPT
Take B1: the “cleavage of DEVD-E2 compared with VDVAD-E2” value with DEVD-E2 is reported as “cleaved DEVD-E2 only 44 times slower than VDVAD-E2”.

B2: T7AC_6H_mS9ProE (protein)
chain: MLEDPERNKERKEAELQAQTAEQHHHHHHGKNHAGSPGCEESAAGKEKLPKMRLPTRSDMICGYACLKGTAAMRNTKRGSWYIEALAQVFSERACDMHVADMLVKVNALIKDREGYAPGTEFHRCKVMSEYCSTLCRHLYLFPGHPPTGSGPVCLQVKPCTPEFYQTHFQLAYRLQSRPRGLALVLSNVHFTDEKELEFRSGGDVDHSTLVTLFKLLGYDVHVLCDQTAQEMQEKLQNFAQLPAHRGTDSCIVALLSHGVEGAIYGVDGKLLQLQEVFQLFDNANCPSLQNKPKMFFIQACRGEETERGVDQQD
On to B2, for which the KM amounted to 160 µM in the data set with Abz-VDVADHA-Dap (Dnp); 100 µM with Abz-VDVADTA-Dap (Dnp); 68 µM with Abz-VDVADRA-Dap (Dnp); 410 µM in the data set with Abz-VDVADLA-Dap (Dnp); 420 µM with Abz-VDVADYA-Dap (Dnp); 150 µM in the data set with Abz-VDVADDA-Dap (Dnp). For the same protein, the KM with Abz-VDVADIA-Dap (Dnp) was 130 µM; with Abz-VDVADNA-Dap (Dnp), 120 µM; with Abz-VDVADFA-Dap (Dnp), 80 µM; with Abz-VDVADPA-Dap (Dnp), 120 µM; in the data set with Abz-VDVADMA-Dap (Dnp), 370 µM; in the data set with 6H-GSG-VDVAD-TNFalpha, 520 µM. For the same protein, the KM with Abz-VDVADKA-Dap (Dnp) worked out at 92 µM; with Abz-VDVADVA-Dap (Dnp), 90 µM; in the data set with Abz-VDVADEA-Dap (Dnp) it was 110 µM; with Abz-VDVADQA-Dap (Dnp), 120 µM; in the data set with Abz-VDVADGA-Dap (Dnp), 43 µM; with Abz-VDVADAA-Dap (Dnp), 110 µM. Besides, the figures for the KM with Abz-VDVADSA-Dap (Dnp), with T7AC-6H-GSG-VDVAD-hFGF-2 and with Abz-VDVADWA-Dap (Dnp) were 120 µM, 298 µM and 56 µM, respectively.

B3: T7AC_6H_mS9ProD (protein)
chain: B2 chain with E307D
On to B3, for which the KM with T7AC_6H_GSG_VDSAD-hFGF2 was determined as 865 µM; in the data set with Abz-VDVADHA-Dap (Dnp) it was 170 µM; in the data set with Abz-VDVADTA-Dap (Dnp), 120 µM; with Abz-VDVADRA-Dap (Dnp), 47 µM; with Abz-VDVADLA-Dap (Dnp), 400 µM; in the data set with Abz-VDVADYA-Dap (Dnp) it was 900 µM. Moreover, the KM stood at 190 µM with Abz-VDVADDA-Dap (Dnp); 110 µM with Abz-VDVADIA-Dap (Dnp); 130 µM in the data set with Abz-VDVADNA-Dap (Dnp); 120 µM in the data set with Abz-VDVADFA-Dap (Dnp); 100 µM with Abz-VDVADPA-Dap (Dnp); 480 µM with Abz-VDVADMA-Dap (Dnp). Besides, the KM with Abz-VDVADKA-Dap (Dnp) was found to be 79 µM; in the data set with Abz-VDVADVA-Dap (Dnp) it was 100 µM; in the data set with Abz-VDVADEA-Dap (Dnp) it was 160 µM; in the data set with Abz-VDVADQA-Dap (Dnp) it was 120 µM; in the data set with Abz-VDVADGA-Dap (Dnp) it was 65 µM; with Abz-VDVADAA-Dap (Dnp), 100 µM. Moreover, the KM with Abz-VDVADSA-Dap (Dnp) was determined as 180 µM; in the data set with T7AC-6H-GSG-VDVAD-hFGF-2, 329 µM; in the data set with T7AC-6H-VDVAD-hFGF2, 529 µM; in data set [1], 252 µM; in the data set with Abz-VDVADWA-Dap (Dnp), 53 µM.

B4: T7AC_6H_cpCasp2D (protein)
chain: B2 chain with V127E, D193G, G247V, E304D, E307D
Consider B4, for which the KM in the data set with Abz-VDVADHA-Dap (Dnp) worked out at 110 µM; with Abz-VDVADTA-Dap (Dnp) it was 89 µM; with Abz-VDVADRA-Dap (Dnp), 56 µM; with Abz-VDVADLA-Dap (Dnp) it was 160 µM; with Abz-VDVADYA-Dap (Dnp), 300 µM; in the data set with Abz-VDVADDA-Dap (Dnp), 180 µM. Moreover, the Michaelis constant (KM) with Abz-VDVADIA-Dap (Dnp) was 62 µM; in the data set with Abz-VDVADNA-Dap (Dnp), 87 µM; with Abz-VDVADPA-Dap (Dnp), 150 µM; with Abz-VDVADMA-Dap (Dnp) it was 340 µM; in the data set with 6H-GSG-VDVAD-TNFalpha, 280 µM; with Abz-VDVADKA-Dap (Dnp), 110 µM. Further, the KM with Abz-VDVADEA-Dap (Dnp) was 200 µM; with Abz-VDVADAA-Dap (Dnp), 120 µM; with Abz-VDVADSA-Dap (Dnp), 130 µM; with T7AC-6H-GSG-VDVAD-hFGF-2, 881 µM; with Abz-VDVADWA-Dap (Dnp) it was 36 µM.

B5: 6H_cpCasp2_S9_E105V (protein)
chain: MHHHHHHGKNHAGSPGCEESAAGKEKLPKMRLPTRSDMICGYACLKGTAAMRNTKRGSWYIEALAQVFSERACDMHVADMLVKVNALIKDREGYAPGTEFHRCKVMSEYCSTLCRHLYLFPGHPPTGSGPVCLQVKPCTPEFYQTHFQLAYRLQSRPRGLALVLSNVHFTGEKELEFRSGGDVDHSTLVTLFKLLGYDVHVLCDQTAQEMQEKLQNFAQLPAHRVTDSCIVALLSHGVEGAIYGVDGKLLQLQEVFQLFDNANCPSLQNKPKMFFIQACRGDETDRGVDQQD
Consider B5, for which the KM in the data set with Abz-VDVADHA-Dap (Dnp) was 160 µM; in the data set with Abz-VDVADTA-Dap (Dnp), 150 µM; with Abz-VDVADRA-Dap (Dnp), 48 µM; with Abz-VDVADLA-Dap (Dnp), 300 µM; in the data set with Abz-VDVADYA-Dap (Dnp), 340 µM; with Abz-VDVADDA-Dap (Dnp), 200 µM. Besides, the KM in the data set with Abz-VDVADIA-Dap (Dnp) worked out at 70 µM; in the data set with Abz-VDVADNA-Dap (Dnp), 100 µM; with Abz-VDVADFA-Dap (Dnp), 77 µM; with Abz-VDVADPA-Dap (Dnp), 250 µM; with Abz-VDVADMA-Dap (Dnp) it was 830 µM; with Abz-VDVADKA-Dap (Dnp), 97 µM. Further, the KM is 81 µM in the data set with Abz-VDVADVA-Dap (Dnp); 180 µM with Abz-VDVADEA-Dap (Dnp); 130 µM with Abz-VDVADQA-Dap (Dnp); 57 µM in the data set with Abz-VDVADGA-Dap (Dnp); 110 µM in the data set with Abz-VDVADAA-Dap (Dnp); 200 µM with Abz-VDVADSA-Dap (Dnp). The KM with Abz-VDVADWA-Dap (Dnp) was 51 µM.

B6: cp caspase-2 (6H_cpCasp2D) (protein)
chain: B5 chain with V105E
As for B6, the KM with Abz-VDVADHA-Dap (Dnp) was determined as 120 µM; with Abz-VDVADTA-Dap (Dnp), 75 µM; in the data set with Abz-VDVADRA-Dap (Dnp), 58 µM; in the data set with Abz-VDVADLA-Dap (Dnp), 290 µM; with Abz-VDVADYA-Dap (Dnp), 340 µM; with Abz-VDVADDA-Dap (Dnp) it was 160 µM. For the same protein, the KM with Abz-VDVADIA-Dap (Dnp) was found to be 71 µM; with Abz-VDVADNA-Dap (Dnp), 78 µM; in the data set with Abz-VDVADFA-Dap (Dnp), 60 µM; in the data set with Abz-VDVADPA-Dap (Dnp), 300 µM; with Abz-VDVADMA-Dap (Dnp), 380 µM; in the data set with Abz-VDVADKA-Dap (Dnp), 120 µM. Further, the KM came out at 64 µM in the data set with Abz-VDVADVA-Dap (Dnp); 170 µM in the data set with Abz-VDVADEA-Dap (Dnp); 120 µM in the data set with Abz-VDVADQA-Dap (Dnp); 38 µM with Abz-VDVADCA-Dap (Dnp); 110 µM with Abz-VDVADGA-Dap (Dnp); 89 µM in the data set with Abz-VDVADAA-Dap (Dnp). The KM in the data set with Abz-VDVADSA-Dap (Dnp) came to 200 µM; in the data set with T7AC-6H-GSG-VDVAD-hFGF-2, 639 µM; with Abz-VDVADWA-Dap (Dnp), 46 µM. For the same protein, in the data set with DEVD-E2, the “cleavage of DEVD-E2 compared with VDVAD-E2” value is “processed 140 times slower than VDVAD-E2”.

B7: 6H_cpCasp2_G171D (protein)
chain: B5 chain with V105E, G171D
As for B7, the KM in the data set with Abz-VDVADHA-Dap (Dnp) was found to be 170 µM; in the data set with Abz-VDVADTA-Dap (Dnp), 140 µM; in the data set with Abz-VDVADRA-Dap (Dnp) it was 65 µM; with Abz-VDVADLA-Dap (Dnp), 300 µM; with Abz-VDVADYA-Dap (Dnp) it was 350 µM; with Abz-VDVADDA-Dap (Dnp), 150 µM. Besides, the KM in the data set with Abz-VDVADIA-Dap (Dnp) is 78 µM; in the data set with Abz-VDVADNA-Dap (Dnp) it was 110 µM; with Abz-VDVADFA-Dap (Dnp), 86 µM; in the data set with Abz-VDVADPA-Dap (Dnp), 390 µM; in the data set with Abz-VDVADMA-Dap (Dnp), 610 µM; in the data set with Abz-VDVADKA-Dap (Dnp), 94 µM. Moreover, the KM with Abz-VDVADVA-Dap (Dnp) turned out to be 96 µM; in the data set with Abz-VDVADEA-Dap (Dnp), 210 µM; with Abz-VDVADQA-Dap (Dnp), 160 µM; with Abz-VDVADGA-Dap (Dnp) it was 75 µM; with Abz-VDVADAA-Dap (Dnp), 120 µM; in the data set with Abz-VDVADSA-Dap (Dnp), 220 µM. The KM with Abz-VDVADWA-Dap (Dnp) is 56 µM.

Usually KM stands for the substrate concentration at which the rate is half of its maximum.
